Test [1] deals with T1, annexin A1 (human, UniProt P04083 2-346).
T1 construct: HuProt array protein, full-length recombinant from yeast; printed 'annexin Al'; also called ANXA1
T1 sequence: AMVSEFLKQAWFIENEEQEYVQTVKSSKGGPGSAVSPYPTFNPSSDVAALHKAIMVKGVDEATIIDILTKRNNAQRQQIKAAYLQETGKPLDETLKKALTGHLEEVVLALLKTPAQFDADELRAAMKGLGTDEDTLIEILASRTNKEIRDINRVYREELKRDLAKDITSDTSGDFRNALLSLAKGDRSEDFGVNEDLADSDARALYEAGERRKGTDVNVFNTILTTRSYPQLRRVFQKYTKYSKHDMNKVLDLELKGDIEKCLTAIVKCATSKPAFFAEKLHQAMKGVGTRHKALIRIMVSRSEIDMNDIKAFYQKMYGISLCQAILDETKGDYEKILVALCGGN

The target of test [2] is T2, family with sequence similarity 177 member A1, transcript variant 2 (human, UniProt Q8N128 1-213).
T2 construct: HuProt array protein, full-length recombinant from yeast; also called FAM177A1
T2 sequence: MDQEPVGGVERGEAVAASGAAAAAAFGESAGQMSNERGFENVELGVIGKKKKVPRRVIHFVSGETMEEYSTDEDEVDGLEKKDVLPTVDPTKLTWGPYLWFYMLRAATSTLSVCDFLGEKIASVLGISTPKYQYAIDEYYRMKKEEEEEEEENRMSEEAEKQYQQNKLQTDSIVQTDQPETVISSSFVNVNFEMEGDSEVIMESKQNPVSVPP

Test [3] concerns the target T3, Killer cell lectin like receptor g2 (human, UniProt A4D1S0 1-409).
T3 construct: HuProt array protein, full-length recombinant from yeast; also called KLRG2
T3 sequence: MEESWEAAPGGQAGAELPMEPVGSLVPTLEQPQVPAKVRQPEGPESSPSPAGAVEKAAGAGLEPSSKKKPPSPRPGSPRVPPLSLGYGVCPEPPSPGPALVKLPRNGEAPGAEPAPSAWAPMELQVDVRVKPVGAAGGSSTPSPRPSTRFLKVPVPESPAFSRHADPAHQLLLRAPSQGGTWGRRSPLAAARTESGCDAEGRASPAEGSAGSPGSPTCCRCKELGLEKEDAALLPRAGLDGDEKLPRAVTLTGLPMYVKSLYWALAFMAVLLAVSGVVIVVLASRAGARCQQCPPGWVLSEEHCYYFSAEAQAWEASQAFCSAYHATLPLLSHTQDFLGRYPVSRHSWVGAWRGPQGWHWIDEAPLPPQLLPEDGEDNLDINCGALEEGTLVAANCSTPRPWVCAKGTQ

Test [4] addresses T4, FMR1 autosomal homolog 2 (human, UniProt P51116 1-673).
T4 construct: HuProt array protein, full-length recombinant from yeast; also called FXR2

The target in test [5] is T5, tripartite motif containing 35, transcript variant 1 (human, UniProt Q9UPQ4 1-493).
T5 construct: HuProt array protein, full-length recombinant from yeast; also called TRIM35
T5 sequence: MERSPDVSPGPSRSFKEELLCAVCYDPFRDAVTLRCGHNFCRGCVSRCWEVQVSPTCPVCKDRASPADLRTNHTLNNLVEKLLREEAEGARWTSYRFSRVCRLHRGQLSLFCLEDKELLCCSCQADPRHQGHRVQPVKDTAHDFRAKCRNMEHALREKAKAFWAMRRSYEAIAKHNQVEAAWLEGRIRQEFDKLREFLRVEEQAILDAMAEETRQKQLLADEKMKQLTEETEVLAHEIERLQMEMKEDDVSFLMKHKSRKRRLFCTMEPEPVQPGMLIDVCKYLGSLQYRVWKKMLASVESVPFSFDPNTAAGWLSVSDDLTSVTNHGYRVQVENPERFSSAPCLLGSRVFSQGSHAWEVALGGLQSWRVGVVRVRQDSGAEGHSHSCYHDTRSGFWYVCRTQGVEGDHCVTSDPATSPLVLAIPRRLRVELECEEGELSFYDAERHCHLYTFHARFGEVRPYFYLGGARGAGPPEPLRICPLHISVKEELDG

For test [6], the target named is T6, checkpoint kinase 2, transcript variant 3 (human).
T6 construct: HuProt array protein, full-length recombinant from yeast; also called CHEK2
T6 chain: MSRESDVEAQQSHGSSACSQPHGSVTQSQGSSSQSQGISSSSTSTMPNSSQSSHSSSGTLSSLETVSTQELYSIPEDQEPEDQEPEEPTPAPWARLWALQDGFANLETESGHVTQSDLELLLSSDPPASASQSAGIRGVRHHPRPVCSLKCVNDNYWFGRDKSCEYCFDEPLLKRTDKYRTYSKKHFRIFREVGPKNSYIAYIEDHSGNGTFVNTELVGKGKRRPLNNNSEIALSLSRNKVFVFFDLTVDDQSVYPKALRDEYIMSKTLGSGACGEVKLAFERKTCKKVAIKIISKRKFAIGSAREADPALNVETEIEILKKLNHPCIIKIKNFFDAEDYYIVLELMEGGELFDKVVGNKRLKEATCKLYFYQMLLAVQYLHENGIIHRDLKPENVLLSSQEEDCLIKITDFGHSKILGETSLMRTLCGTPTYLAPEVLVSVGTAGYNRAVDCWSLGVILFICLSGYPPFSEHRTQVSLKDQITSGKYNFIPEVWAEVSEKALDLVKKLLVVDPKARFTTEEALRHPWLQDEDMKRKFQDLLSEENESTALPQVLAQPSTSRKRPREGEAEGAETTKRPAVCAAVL

Test [7] concerns the target T7, geminin DNA replication inhibitor, transcript variant 1 (human, UniProt O75496 1-209).
T7 construct: on protein array; also called GMNN
T7 sequence: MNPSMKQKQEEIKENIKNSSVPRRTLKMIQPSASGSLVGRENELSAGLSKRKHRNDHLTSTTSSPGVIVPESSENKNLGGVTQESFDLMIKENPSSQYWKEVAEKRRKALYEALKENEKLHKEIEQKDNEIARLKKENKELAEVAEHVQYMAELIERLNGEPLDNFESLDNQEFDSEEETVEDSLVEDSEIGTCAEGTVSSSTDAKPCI
The test is described as follows: protein array.

Test [8] addresses T8, DEAD-box helicase 18 (human, UniProt Q9NVP1 1-670).
T8 construct: on protein array; also called DDX18
T8 sequence: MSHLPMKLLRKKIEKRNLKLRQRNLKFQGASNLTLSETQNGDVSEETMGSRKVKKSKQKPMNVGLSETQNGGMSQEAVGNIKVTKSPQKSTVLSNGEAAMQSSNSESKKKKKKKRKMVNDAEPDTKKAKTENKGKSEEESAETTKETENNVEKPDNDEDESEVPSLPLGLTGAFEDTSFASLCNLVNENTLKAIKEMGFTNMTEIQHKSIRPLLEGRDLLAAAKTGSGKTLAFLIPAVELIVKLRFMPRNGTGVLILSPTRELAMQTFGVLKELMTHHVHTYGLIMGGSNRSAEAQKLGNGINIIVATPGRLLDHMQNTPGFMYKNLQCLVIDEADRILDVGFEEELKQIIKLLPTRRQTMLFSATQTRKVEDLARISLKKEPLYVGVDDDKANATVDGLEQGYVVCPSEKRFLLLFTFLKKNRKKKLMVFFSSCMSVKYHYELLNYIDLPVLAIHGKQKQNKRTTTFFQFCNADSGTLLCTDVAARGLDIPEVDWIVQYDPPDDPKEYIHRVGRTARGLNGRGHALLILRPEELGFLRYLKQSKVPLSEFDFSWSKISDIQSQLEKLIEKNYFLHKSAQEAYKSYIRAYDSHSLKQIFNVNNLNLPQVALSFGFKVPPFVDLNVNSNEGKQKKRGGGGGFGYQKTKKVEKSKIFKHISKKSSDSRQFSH
As to the kind of experiment: protein array.

Test [9] addresses T9, syntaxin 1A, transcript variant 1 (human, UniProt Q16623 1-288).
T9 construct: on protein array; also called STX1A
The test is described as follows: protein array.

Test [10] addresses T10, ankyrin repeat domain 53, transcript variant 2 (human).
T10 construct: HuProt array protein, full-length recombinant from yeast; also called ANKRD53
T10 chain: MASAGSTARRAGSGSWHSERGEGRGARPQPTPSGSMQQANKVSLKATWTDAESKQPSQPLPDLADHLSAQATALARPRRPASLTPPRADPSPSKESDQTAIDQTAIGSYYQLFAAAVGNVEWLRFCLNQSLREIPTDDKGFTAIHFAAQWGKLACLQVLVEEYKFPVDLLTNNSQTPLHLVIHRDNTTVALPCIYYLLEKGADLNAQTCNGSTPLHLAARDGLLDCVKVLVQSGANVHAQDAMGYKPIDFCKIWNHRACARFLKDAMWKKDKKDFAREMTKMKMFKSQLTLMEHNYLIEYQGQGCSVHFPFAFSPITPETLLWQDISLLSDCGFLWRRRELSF

Test [11] deals with T11, methyltransferase like 21C (human, UniProt Q5VZV1 1-264).
T11 construct: HuProt array protein, full-length recombinant from yeast; also called METTL21C
T11 sequence (Q5VZV1 whole entry): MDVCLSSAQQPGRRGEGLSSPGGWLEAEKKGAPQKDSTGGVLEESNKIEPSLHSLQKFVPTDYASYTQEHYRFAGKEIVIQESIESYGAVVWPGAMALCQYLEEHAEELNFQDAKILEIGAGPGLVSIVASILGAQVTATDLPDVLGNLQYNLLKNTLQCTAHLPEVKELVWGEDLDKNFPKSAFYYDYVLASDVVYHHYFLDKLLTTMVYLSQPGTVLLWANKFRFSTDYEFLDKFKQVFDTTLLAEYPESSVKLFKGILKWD

T9 sequence (Q16623 whole entry, change not shown): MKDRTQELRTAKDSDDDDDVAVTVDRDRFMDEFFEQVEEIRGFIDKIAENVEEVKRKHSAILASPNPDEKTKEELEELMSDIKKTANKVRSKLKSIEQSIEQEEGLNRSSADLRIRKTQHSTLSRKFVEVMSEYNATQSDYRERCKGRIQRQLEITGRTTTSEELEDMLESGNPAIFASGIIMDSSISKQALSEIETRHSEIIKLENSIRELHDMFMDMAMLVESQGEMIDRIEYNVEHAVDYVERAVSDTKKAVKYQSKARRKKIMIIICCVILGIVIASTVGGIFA
T4 sequence (P51116 whole entry Q252H): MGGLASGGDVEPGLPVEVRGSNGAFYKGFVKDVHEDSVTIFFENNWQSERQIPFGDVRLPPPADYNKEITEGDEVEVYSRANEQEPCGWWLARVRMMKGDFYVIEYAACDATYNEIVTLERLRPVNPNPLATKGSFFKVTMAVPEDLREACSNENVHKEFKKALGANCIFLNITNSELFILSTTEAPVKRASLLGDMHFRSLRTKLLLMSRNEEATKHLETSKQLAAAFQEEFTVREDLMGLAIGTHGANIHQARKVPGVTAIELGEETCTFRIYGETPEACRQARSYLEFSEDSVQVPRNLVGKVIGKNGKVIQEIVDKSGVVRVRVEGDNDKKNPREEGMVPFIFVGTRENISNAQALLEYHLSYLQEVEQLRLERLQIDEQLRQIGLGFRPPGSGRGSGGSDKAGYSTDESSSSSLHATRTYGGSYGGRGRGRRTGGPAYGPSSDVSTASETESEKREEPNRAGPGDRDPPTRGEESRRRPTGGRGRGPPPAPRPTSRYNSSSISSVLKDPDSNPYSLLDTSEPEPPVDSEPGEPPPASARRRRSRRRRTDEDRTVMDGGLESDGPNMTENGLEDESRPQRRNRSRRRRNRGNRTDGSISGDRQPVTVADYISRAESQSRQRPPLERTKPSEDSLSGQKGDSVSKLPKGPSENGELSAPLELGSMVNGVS

B1: TLUA1004 (antibody, V domains shown)
VH: EVQLVESGGGLVQTGGSLRLSCSASGFTFNNYWMHWVRQAPGKGLLWLSRINTDGSRGHYDDSVQGRFTISRDNAKQTVYLQMDGLRAEDTAVYFCARDGYDFRAFDHWGQGVLVTVSS
VL: DIQMTQSPSSLSASVGDKVTMTCRASQFISVYVNWYQQKPGKAPKLLIYTASSLESGVSSRFSGGGSGTDFTLTIRSLQPEDFAIYYCQQTYSTPWTFGPGTRVEIKR
notes: detected with anti-human IgG Fc
In the case of B1, the binding result in [1] is reported as “binds”.

B2: TLUA1016 (antibody, V domains shown)
VH: EVQLLESGGALVQPGGSLRLSCAVSGLTFNRFAMTWVRQAPGKGLEWVSHIGGSGGYTYYADSVKGRFTISRDNSKNTLYLQMNSLRAEDTAVYHCVKLKGIGAMWTYAMDVWGQGTTVTVSS
VL: QSVLTQPPSVSGAPGQRVTIPCTGSSSNLGAGYAVHWYQQLPATTPKLLIYANSSRPSGVPDRFSGSRSDTSASLAITGLQAEDEADYYCQSYDSSLSGYVFGTGTWVTVLS
notes: as for B1
Turning to B2, in [2], the binding result is given as “binds”.

B3: TLUA1001 (antibody, V domains shown)
VH: PLQLQESGPGLVKPSETLSLTCSVSGGSIRSSAPFWGWIRQPPGKGLEWIGNIYYNGDTSYSPSLENRVTLFVDTSKNQFSLNLTSVTAADTAVYYCGRIMTPSIDLWGQGKLVTVSS
VL: EIVLTQSPGTLSLSPGERATLSCRASQSISSTYLVWYQQKPGQAPRLLIYAASYRATGIPDRFSGSGSGTDFILTISRLEPEDFAVYYCQQYGSSLTFGGGTKVEIKR
notes: as for B1
As for B3, the binding result in test [3], in test [4] and in test [5] was “binds” in each case.

B4: TKIC1013 (antibody, V domains shown)
VH: EVQLVESGGGLVQPGGSLRLSCAASGFTFNNYWMHWVRQAPGKGLVWVSRISSDGSTTASADSVKGRFTISRDNAKNTLFLQMNSLRAEDTAVYYCAREGAPDDYGDSGTAFDIWGQGTTVTVSS
VL: DIQLTQSPSFLSASVGDRVTITCRASQDISSFLAWYQQKPGKAPDLLIYAASTLQSGVPSRFSGSGSGTEFTLTISSLQPEDFAAYYCQHLTSFPYTFGQGTKLEIKR
notes: as for B1
B4: the binding result in test [6] is given as “binds”.

B5: TBRE1027 (antibody, V domains shown)
VH: EVQLLESGGGLVQPGGSLRLSCAASGFTFSSYAMSWVRQAPGKGLEWVSTISGSGHSTYYADSVKGRFTISRDNSKNTLYLQMNSLRAEDTAVYYCAKSTLGGGFDFWGQGTLVTVSS
VL: DIQMTQSPFSLSASVGDRVTITCRASQSISSYLNWYQQKPGKAPKLLIYAASSLQSGVPSRFSGSGSGTDFTLTISSLQPEDFATYYCHQSYSTSLTFGGGTKVEIKR
notes: VH/VL only
On to B5, for which the binding result in test [7], in test [8] and in [9] was “binds” each time.

B6: TKIC1019 (antibody, V domains shown)
VH: QLQLQESGPGLVKPSETLSLTCTVSDVSIISSFYYWGWIRQPPGKGLEWIGSVYYSGSTSYNPSLKSRVTISADTSKAHFSLNLRSVTAADTAVYYCVSRGPLGGAAAGPDYWGQGALVIVSS
VL: VSSELTQDPAVSVALGQTVRITCQGDSLRSYYATWYQQKPGQAPLLVIFDKDKRPSGIPDRFSGSSSGNTASLTITGAQPEDEAVYYCNSRDSSAHDHLLFGGGTTLTVLG
notes: as for B1
Turning to B6, the binding result in [10] is given as “binds”.

B7: TLUS1003 (antibody, V domains shown)
VH: QVHLVQSGSEFKKPGASVKISCKTSGYTFTNYAMNWVRQAPGQGLEWVGWINTVTGIPGYAQGFTGRFIISLDTSGRTSYLQINSLQAEDTAVYYCARSGGFGWSRDLDYWGQGTLVTVSS
VL: DIVLTQSPLSLPVTPGEPASISCRSSQSLLHSNGVYYLDWYLLKPGQSPQLVIYMGSSRASGVPDRFSGSGSGTDFRLKISRVEAEDVGIYYCMQALQTPWTFGQGTKVEIKR
notes: as for B1
Turning to B7, the binding result in test [11] is “binds”.

(Values after patent US20220204643A1 (published 2022).)
